Entries after “also recorded” stand apart in the source; their conditions may differ.
Key:
E. coli χ2913 cells = experiment: Survival of TS-deficient E. coli χ2913 expressing wild type or mutant TS on M9 plates containing 5-FdUR; format: cell-based; details: for resistance to 5-FdUR (survival curves), in words: FIG. 3A-3C, single mutants made by site-directed mutagenesis
Experimental: The resistance of each of the 41 mutants to 5-FdUR is expressed as fold enhancement in survival relative to wild type determined in parallel assays. All assays were carried out in duplicate at varying concentration of 5-FdUR and most comparison were repeated in two or more separate experiments. […] Only those experiments in which the survival of the wild type was lower than 1% were included in this tabulation. The percent survival of the wild type at the indicated concentrations of 5-FdUR is as follows: (a) 0.4% in 0.4 nM; (b) <0.1% in a 150 nM; (c) 0.1% at 150 nM; (d) 0 at 300 nM; (e) 0.5% at 150 nM; (f) 0 at 200 nM; (g) 0.95 at 150 nM.
E. coli χ2913 cells harboring plasmids with random substitutions encoding different amino acids, the TS library, were grown overnight at 37° C. in 2×YT medium containing 50 mg/ml of carbenicillin and 50 mg/ml thymidine. Cultures were diluted 1:100 in the same medium and grown at 37° C. until the OD600 reached 0.6 to 0.8. Aliquots (1 ml) of the exponentially growing cells were pelleted and resuspended in M9 salts and plated on three different media. On 1×YT containing […] of carbenicillin and supplemented with 50 mg/ml of thymidine, essentially all cells harboring the plasmid DNA should be recovered. On M9 plates containing carbenicillin, only cells expressing active TS proteins should grow because the medium lacks thymidine. Drug resistant clones were selected on M9 plates containing carbenicillin and increasing concentrations of 5FdUR essentially as previously described (Landis, D. M., Loeb, L. A., 1998, J. Biol. Chem. 273:25809-25817)
To isolate mutants that render E. coli χ2913 resistant to 5-FdUR, the TS library was plated on M9 minimal medium containing 200 or 300 nM 5-FdUR. […] Resistant colonies were selected and plasmid DNA was isolated and re-transformed into fresh χ2913 cells to confirm that the plasmid was the source of the drug-resistant phenotype.
To obtain a profile of amino acid replacements conferring resistance, the remaining, 3′-proximal third of the cDNA from each of the 33 mutants was sequenced. […] Resistance is recorded as percent survival relative to percent survival of host cells harboring wild type TS at 150 nM 5-FdUR of greater. Expression of TS in 10 of the resistant mutants was analyzed by Western blotting with antiserum directed against human TS. The level of expression of wild type TS was more than 2-fold greater than that of any of the mutants, estimated by visual inspection of the gel (data not shown). The mutant proteins may be more labile than the wild type or more susceptible to proteolytic degradation.

[1] = Inhibition constants (Ki) for 5-FdUMP from Dixon plot; format: biochemical, human; details: 25° C.
Experimental: TS activity was monitored spectrophotometrically by the increase in absorbance at 340 nm that occurs concomitant with the production of H2 folate (Δε=6400 M^−1 cm^−1). The reaction buffer contained 50 mM TES (pH 7.4), 25 mM NaCl, 6.5 mM formaldehyde, 1 mM EDTA and 150 μM 2-mercaptoethanol. When the concentration of dUMP was varied, a high concentration of (6R)—CH2H4 folate was added (3001200 mM of a racemic mixture); when the concentration of (6R)—CH2H4-folate was varied, the concentration of dUMP was 400 μM. Purified wild type or mutant TS protein was added to initiate the reaction at 25° C. Initial velocity measurements were obtained with a Perkin Elmer Lambda Bio 20 UV/VIS spectrophotometer. Steady-state kinetic parameters were derived by a nonlinear least squares fit of the data to the Michaelis Menten equation with KaleidaGraph 3.0 software (Abelbeck Software, Reading Pa.). […] Two dUMP concentrations (30 μM and 300 μM) were used, and FdUMP concentrations were varied. To initiate reactions, CH2H4-folate was added to yield a final concentration of 300 μM of the active isomer.

bacterial strain χ2913 = experiment: Testing the 5-FU-resistance of TS-mutants: colonies of transfected χ2913 on 5-FdUR selection plates; format: cell-based; details: 200 nM 5-FdUR, FIG. 5
Experimental: The bacterial strain χ2913 was transfected with expressions vectors of the TS-mutants and defined amounts of bacteria in the exponential growth phase were plated on selection plates. The selection plates contained increasing concentrations of 5-fluorodeoxyuridine (0, 75, 150, 200, respectively 300 nM). 5-fluorodeoxyuridine (5-FdUR) is a very effective metabolite, which is generated from 5-fluorouracil in the cell. The selection plates were made of minimal medium, which contained carbenicilline and tetracycline. […] After 36 to 48 hours the number of growing colonies was determined. For this the number of colonies of bacteria, which were transfected with wild type thymidylate synthase was set as 100% and all other numbers of colonies were correspondingly converted to % values.

Molecule | resistance to 5-FdUR (survival curves), in words (E. coli χ2913 cells) | further results
T51S;G52S (protein) MPVAGSELPRRPLPPAAQERDAEPRPPHGELQYLGQIQHILRCGVRKDDRSSTGTLSVFGMQARYSLRDEFPLLTTKRVFWKGVLEELLWFIKGSTNAKELSSKGVKIWDANGSRDFLDSLGFSTREEGDLGPVYGFQWRHFGAEYRDMESDYSGQGVDQLQRVIDTIKTNPDDRRIIMCAWNPRDLPLMALPPCHALCQFYVVNSELSCQLYQRSGDMGLGVPFNIASYALLTYMIAHITGLKPGDFIHTLGDAHIYLNHIEPLKIQLQREPRPFPKLRILRKVEKIDDFKAEDFQIEGYNPHPTIKMEMAV | – | 5-FdUR concentration at which colonies formed on minimal plates (E. coli χ2913 cells; side-by-side comparison, FIG. 3A, 200 nM clones did not grow at 250 nM): 200 nM
T51S: human TS single mutant T51S (protein) MPVAGSELPRRPLPPAAQERDAEPRPPHGELQYLGQIQHILRCGVRKDDRSGTGTLSVFGMQARYSLRDEFPLLTTKRVFWKGVLEELLWFIKGSTNAKELSSKGVKIWDANGSRDFLDSLGFSTREEGDLGPVYGFQWRHFGAEYRDMESDYSGQGVDQLQRVIDTIKTNPDDRRIIMCAWNPRDLPLMALPPCHALCQFYVVNSELSCQLYQRSGDMGLGVPFNIASYALLTYMIAHITGLKPGDFIHTLGDAHIYLNHIEPLKIQLQREPRPFPKLRILRKVEKIDDFKAEDFQIEGYNPHPTIKMEMAV | – | Ki for 5-FdUMP, increase over wild type TS [1]: 11 fold
D254E (protein) MPVAGSELPRRPLPPAAQERDAEPRPPHGELQYLGQIQHILRCGVRKDDRTGTGTLSVFGMQARYSLRDEFPLLTTKRVFWKGVLEELLWFIKGSTNAKELSSKGVKIWDANGSRDFLDSLGFSTREEGDLGPVYGFQWRHFGAEYRDMESDYSGQGVDQLQRVIDTIKTNPDDRRIIMCAWNPRDLPLMALPPCHALCQFYVVNSELSCQLYQRSGDMGLGVPFNIASYALLTYMIAHITGLKPGDFIHTLGEAHIYLNHIEPLKIQLQREPRPFPKLRILRKVEKIDDFKAEDFQIEGYNPHPTIKMEMAV | higher resistance than wild type TS | survival rate of bacteria transfected with TS expression vector (bacterial strain χ2913): 80%
Y258F: human TS single mutant Y258F made by site-directed mutagenesis (protein) MPVAGSELPRRPLPPAAQERDAEPRPPHGELQYLGQIQHILRCGVRKDDRTGTGTLSVFGMQARYSLRDEFPLLTTKRVFWKGVLEELLWFIKGSTNAKELSSKGVKIWDANGSRDFLDSLGFSTREEGDLGPVYGFQWRHFGAEYRDMESDYSGQGVDQLQRVIDTIKTNPDDRRIIMCAWNPRDLPLMALPPCHALCQFYVVNSELSCQLYQRSGDMGLGVPFNIASYALLTYMIAHITGLKPGDFIHTLGDAHIFLNHIEPLKIQLQREPRPFPKLRILRKVEKIDDFKAEDFQIEGYNPHPTIKMEMAV | less resistant than the double mutant, but more resistant than wild type TS | Ki for 5-FdUMP, increase over wild type TS [1]: 3.1 fold
D254A (protein) MPVAGSELPRRPLPPAAQERDAEPRPPHGELQYLGQIQHILRCGVRKDDRTGTGTLSVFGMQARYSLRDEFPLLTTKRVFWKGVLEELLWFIKGSTNAKELSSKGVKIWDANGSRDFLDSLGFSTREEGDLGPVYGFQWRHFGAEYRDMESDYSGQGVDQLQRVIDTIKTNPDDRRIIMCAWNPRDLPLMALPPCHALCQFYVVNSELSCQLYQRSGDMGLGVPFNIASYALLTYMIAHITGLKPGDFIHTLGAAHIYLNHIEPLKIQLQREPRPFPKLRILRKVEKIDDFKAEDFQIEGYNPHPTIKMEMAV | higher resistance than wild type TS | –
M219V (protein) MPVAGSELPRRPLPPAAQERDAEPRPPHGELQYLGQIQHILRCGVRKDDRTGTGTLSVFGMQARYSLRDEFPLLTTKRVFWKGVLEELLWFIKGSTNAKELSSKGVKIWDANGSRDFLDSLGFSTREEGDLGPVYGFQWRHFGAEYRDMESDYSGQGVDQLQRVIDTIKTNPDDRRIIMCAWNPRDLPLMALPPCHALCQFYVVNSELSCQLYQRSGDVGLGVPFNIASYALLTYMIAHITGLKPGDFIHTLGDAHIYLNHIEPLKIQLQREPRPFPKLRILRKVEKIDDFKAEDFQIEGYNPHPTIKMEMAV | yield resistance | –
T53S (protein) MPVAGSELPRRPLPPAAQERDAEPRPPHGELQYLGQIQHILRCGVRKDDRTGSGTLSVFGMQARYSLRDEFPLLTTKRVFWKGVLEELLWFIKGSTNAKELSSKGVKIWDANGSRDFLDSLGFSTREEGDLGPVYGFQWRHFGAEYRDMESDYSGQGVDQLQRVIDTIKTNPDDRRIIMCAWNPRDLPLMALPPCHALCQFYVVNSELSCQLYQRSGDMGLGVPFNIASYALLTYMIAHITGLKPGDFIHTLGDAHIYLNHIEPLKIQLQREPRPFPKLRILRKVEKIDDFKAEDFQIEGYNPHPTIKMEMAV | less resistant than the double mutant, but more resistant than wild type TS; also recorded: less resistant than Y258F | –
D254N (protein) MPVAGSELPRRPLPPAAQERDAEPRPPHGELQYLGQIQHILRCGVRKDDRTGTGTLSVFGMQARYSLRDEFPLLTTKRVFWKGVLEELLWFIKGSTNAKELSSKGVKIWDANGSRDFLDSLGFSTREEGDLGPVYGFQWRHFGAEYRDMESDYSGQGVDQLQRVIDTIKTNPDDRRIIMCAWNPRDLPLMALPPCHALCQFYVVNSELSCQLYQRSGDMGLGVPFNIASYALLTYMIAHITGLKPGDFIHTLGNAHIYLNHIEPLKIQLQREPRPFPKLRILRKVEKIDDFKAEDFQIEGYNPHPTIKMEMAV | higher resistance than wild type TS | –
D116A (protein) MPVAGSELPRRPLPPAAQERDAEPRPPHGELQYLGQIQHILRCGVRKDDRTGTGTLSVFGMQARYSLRDEFPLLTTKRVFWKGVLEELLWFIKGSTNAKELSSKGVKIWDANGSRAFLDSLGFSTREEGDLGPVYGFQWRHFGAEYRDMESDYSGQGVDQLQRVIDTIKTNPDDRRIIMCAWNPRDLPLMALPPCHALCQFYVVNSELSCQLYQRSGDMGLGVPFNIASYALLTYMIAHITGLKPGDFIHTLGDAHIYLNHIEPLKIQLQREPRPFPKLRILRKVEKIDDFKAEDFQIEGYNPHPTIKMEMAV | yield resistance | –

— patent US20080045451A1, “Novel thymidylate synthase mutants” (priority 2000, published 2008)
